Source: publication PMC7714071, “Interaction of amyloid beta with humanin and acetylcholinesterase is modulated by ATP” (FEBS Open Bio, 2020)

Tests used:
[1] = test system: Aβ in A549 cell-conditioned media; experiment: ELISA, oligomer versus total Aβ in A549 cell-conditioned media; type: cell-based, human; conditions: Fig. 8A
Description: Aβ ELISAs were carried out according to previous protocols for determining the oligomeric and monomeric concentrations of Aβ and as we recently reported. Briefly, total Aβ (monomers + oligomers) was measured by two‐site binding ELISAs using the capture 6E10 monoclonal antibody and 4G8‐conjugated biotin as the detection antibody, which recognizes a distinct epitope, then quantitated using streptavidin‐HRP.
Using the same samples, oligomerized Aβ was measured by a single‐site ELISA in which antibodies targeting the same primary sequence epitope were used for both capture (4G8) and detection (4G8‐biotin). Only oligomers are detected with this approach since the 4G8‐biotin antibody cannot bind to the captured monomer because the epitope is blocked by the 4G8 capture antibody. […]
Conditioned media were immunodepleted (ID) according to the methods previously described and our recently published report. […] The ID media were then carefully removed and analyzed for the presence of the target protein or peptide by ELISA. The same amount of protein (3 µL of 600 µg·mL^−1 total protein) of each sample was analyzed in the experiments. […]
Both epitopes recognized by the 6E10 and 4G8 antibodies have been previously shown to be exposed in Aβ aggregates. […] Fold change relative to controls using anti‐6E10 or anti‐4G8 antibodies incubated with 300 μL of the medium not incubated with cells was calculated. […]

Aβ42 = conditions: HN and AChE compared; cited from earlier work
Text: Humanin has been previously reported to bind amino acid residues 17–28 of Aβ (Fig. 1). AChE is also known to bind Aβ (1–16) and the Aβ (12–28) region (Fig. 1). Since the binding sites of AChE and HN on Aβ are overlapping, we previously investigated whether HN and AChE can simultaneously bind Aβ [79].

B1: acetylcholinesterase (protein)
chain: EGREDAELLVTVRGGRLRGIRLKTPGGPVSAFLGIPFAEPPMGPRRFLPPEPKQPWSGVVDATTFQSVCYQYVDTLYPGFEGTEMWNPNRELSEDCLYLNVWTPYPRPTSPTPVLVWIYGGGFYSGASSLDVYDGRFLVQAERTVLVSMNYRVGAFGFLALPGSREAPGNVGLLDQRLALQWVQENVAAFGGDPTSVTLFGESAGAASVGMHLLSPPSRGLFHRAVLQSGAPNGPWATVGMGEARRRATQLAHLVGCPPGGTGGNDTELVACLRTRPAQVLVNHEWHVLPQESVFRFSFVPVVDGDFLSDTPEALINAGDFHGLQVLVGVVKDEGSYFLVYGAPGFSKDNESLISRAEFLAGVRVGVPQVSDLAAEAVVLHYTDWLHPEDPARLREALSDVVGDHNVVCPVAQLAGRLAAQGARVYAYVFEHRASTLSWPLWMGVPHGYEIEFIFGIPLDPSRNYTAEEKIFAQRLMRYWANFARTGDPNEPRDPKAPQWPPYTAGAQQYVSLDLRPLEVRRGLRAQACAFWNRFLPKLLSATDTLDEAERQWKAEFHRWSSYMVHWKNQFDHYSKQDRCSDL
oligomer, % of total Aβ remaining after AChE ID ([1]; AChE-immunodepleted A549 media (non-depleted ~ 63%)): ~ 47%
total Aβ remaining after AChE ID ([1]; AChE-immunodepleted A549 media): ~ 57%
affinity for Aβ42 (Aβ42): comparable affinities
